In US20210220460:

Legend:
[1] = system: DsbA1-His of N. meningitidis expressed in A. baylyi (pBAV-dsbA1-His, C-6X His)
[2] = system: OmpA-His (A1S_1193) expressed in A. baylyi
[3] = system: ComP-His (pilin-like protein ComP of A. baylyi with C-6X His tag)
[4] = system: PilAM2, major type IVa pilin of A. nosocomialis strain M2
[5] = system: PilA17978-His (pilin of A. baumannii ATCC 17978 with C-terminal hexa-histidine tag)
[6] = system: OmpA-His (A1S_1193 with C-terminal 5x His tag), expressed in strain M2 backgrounds

Substance: Pg1LADP1, general O-OTase of A. baylyi ADP1 (ACIAD0103)
- DsbA1-His electrophoretic mobility, western blot of A. baylyi lysates [1]: displayed an increased electrophoretic mobility in the Δpg1LADP1 background relative to wild-type and Δpg1LComP backgrounds
- OmpA-His electrophoretic mobility, western blot of A. baylyi lysates [2]: displayed an increased electrophoretic mobility in the Δpg1LADP1 background relative to wild-type and Δpg1LComP backgrounds
- ComP-His electrophoretic mobility, western blot [3]: Pg1LADP1 is not required for ComP post-translational modification

Substance: Pg1LComP, ComP-specific O-OTase of A. baylyi ADP1 (ACIAD3337)
- heterologous PilAM2 electrophoretic mobility, western blot [4]: Pg1LComP was unable to glycosylate the pilins recognized by TfpO
- heterologous PilA17978 electrophoretic mobility, western blot [5]: PilA17978 was not glycosylated by Pg1LComP
- ComP-His electrophoretic mobility, western blot [3]: pg1LComP (ACIAD3337) is required for ComP modification
- glycosylation in E. coli CLM24, western blot with anti-his and anti-glycan antibodies [3]: lower electrophoretic mobility bands that react to the anti-his and anti-glycan antibodies indicate glycosylation of ComP by the C. jejuni LLO
- glycosylation in E. coli CLM24 with the S. pneumoniae serotype 14 CPS locus, western blot [3]: Lower electrophoretic mobility bands in panel A that react to both Anti-His and Anti-Glycan antibodies in lane 2 relative to lane 1
- heterologous ComP-His electrophoretic mobility, western blot [3]: ComP-His was only modified in A. baylyi ADP1

Substance: Pg1LM2, general O-OTase of A. nosocomialis strain M2 (ORF M215_10475)
- OmpA-His electrophoretic mobility, western blot; ESI-TOF-MS/MS [6]: OmpA-His from the M2Δpg1L::kan and the M2ΔweeH::kan backgrounds migrated at an increased electrophoretic mobility, consistent with the lack of a post-translational modification

Substance: TfpOM2, type four pilin specific O-oligosaccharyltransferase of A. nosocomialis strain M2 (ORF M215_10480)
- MS/MS analysis of PilA from surface shear preparations [4]: PilA from the M2ΔtfpO::kanΔpilT::strep mutant was unmodified
